The source of these data is article PMC4344528, “Structural role of the flanking DNA in mariner transposon excision” (Nucleic Acids Research, 2015).

This series concerns the molecule itself. Briefly: crystal structure; pre-TS cleavage Mos1 paired-end complex: T216A/D249A transposase mixed equimolar with ds IR DNA substrate; hanging-drop vapour diffusion, 100 mM ammonium acetate, 20 mM MgCl2, 50 mM HEPES pH 7.0, 5% PEG 8000; 3.09 Å, C222(1).

B1: T216A/D249A Mos1 transposase double mutant (enzyme)
chain: MSSFVPNKEQTRTVLIFCFHLKKTAAESHRMLVEAFGEQVPTVKKCERWFQRFKSGDFDVDDKEHGKPPKRYEDAELQALLDEDDAQTQKQLAEQLEVSQQAVSNRLREMGKIQKVGRWVPHELNERQMERRKNTCEILLSRYKRKSFLHRIVTGDEKWIFFVSPKRKKSYVDPGQPATSTARPNRFGKKTMLCVWWDQSGVIYYELLKRGETVNAARYQQQLINLNRALQRKRPEYQKRQHRVIFLHANAPSHTARAVRDTLETLNWEVLPHAAYSPDLAPSDYHLFASMGHALAEQRFDSYESVKKWLDEWFAAKDDEFYWRGIHKLPERWEKCVASDGKY
notes: mariner Mos1 transposase, from the codon-optimized Mos1 gene; T216A allows soluble expression in E. coli, D249A is the active site mutation; Crystallised as a paired-end complex (PEC): a transposase dimer with two DNA substrates (33 nt transferred strand, 25 nt non-transferred strand); PDB 3HOS is the post-cleavage PEC of the parent transposase, without D249A; also called T216A/D249A mutant …
In general, stoichiometry N refers to the number of molecules, sites or subunits per partner or assembly. With B1, the “stoichiometry N” value was 2.
